Data reported in patent US5276170A, “Azido-substituted aromatic amino acids” (The United States of America as represented by the …, priority 1992, dated 1994).

Substrate: [N-]=[N+]=Nc1cc(O)ccc1C[C@H](N)C(=O)O
Assay: Tyrosine phenol-lyase catalyzed hydrolytic cleavage to ammonium pyruvate and 3-azidophenol
Assay type: biochemical
Conditions: other: as substrate

B1: tyrosine phenol-lyase (Citrobacter freundii) (protein)
chain: MNYPAEPFRIKSVETVSMIPRDERLKKMQEAGYNTFLLNSKDIYIDLLTDSGTNAMSDKQWAGMMMGDEAYAGSENFYHLERTVQELFGFKHIVPTHQGRGAENLLSQLAIKPGQYVAGNMYFTTTRYHQEKNGAVFVDIVRDEAHDAGLNIAFKGDIDLKKLQKLIDEKGAENIAYICLAVTVNLAGGQPVSMANMRAVRELTEAHGIKVFYDATRCVENAYFIKEQEQGFENKSIAEIVHEMFSYADGCTMSGKKDCLVNIGGFLCMNDDEMFSSAKELVVVYEGMPSYGGLAGRDMEAMAIGLREAMQYEYIEHRVKQVRYLGDKLKAAGVPIVEPVGGHAVFLDARRFCEHLTQDEFPAQSLAASIYVETGVRSMERGIISAGRNNVTGEHHRPKLETVRLTIPRRVYTYAHMDVVADGIIKLYQHKEDIRGLKFIYEPKQLRFFTARFDYI
In the case of B1, the Km is reported as 1 mM.
